Experimental data reported in patent publication US20250027068A1.
Where a chain is given by its changes, count along the chain named.

B1: VRT-48 (Fc fusion)
chain: VTSVWTKGVTPPTDFRKIVDGNIAYYHAPYKAGQGWYDITKAFDGGDDLLCGAATAGNMLHWWFDQNKEQIENYLKKHPEKQKINFNGEQMFDVKEAIDTKDSQTNSELFNYFKEKAFPYLSTKHLGVFPDHVIDMFINGYRLSLTNHGPTPVKRGSKDPRGGIFDAVFTRGDQSKLLTNRHDLKNKTLKEISDLIKQELTEGKALGISHTYANVRINHVINLWGADFDAEGNLEAIYVTDSDSNASIGMKKYFVGVNSNGKVAISAKEIEEDNIGAQVLGLFTLSTGQDIWNQTNDKTHTCPPCPAPEAAGAPSVFLFPPKPKDTLMISRTPEVTCVVVDVSHEDPEVKFNWYVDGVEVHNAKTKPREEQQNSTYRVVSVLTVLHQDWLNGKEYKCKVSNKALKAPIEKTISKAKGQPREPQVYTLPPSRDELTKNQVSLTCLVKGFYPSDIAVEWESNGQPENNYKTTPPVLDSDGSFFLYSKLTVDKSRWQQGNVFSCSVMHEALHNHYTQKSLSLSPG
B2: VRT-54 (Fc fusion)
chain: VTSVWTKGVTPPTDFIKGEDVFHAPYKAGQGWYDITKTFNGKDDLLCGAATAGNMLHWWFDQNKEYIEAYLKKHPEKQKIMFGDQELLDVRKAINTKGSQKNSELFNYFRDKAFPNLSARRLGVMPDLVLDMFINGYYLNVTKTQTTDVNRTYQEKDKRGGIFDAVFTRGDQSKLLTSRHDFKEKGLKEISDLIKQELTEGKALGLSHTYANVRINHVINLWGADFDSDGNLKAIYVTDSDSNASIGMKKYFVGVNSAGKVAISAKEIKEDNIGAQVLGLFTLSTGQDIWNQTNDKTHTCPPCPAPEAAGAPSVFLFPPKPKDTLMISRTPEVTCVVVDVSHEDPEVKFNWYVDGVEVHNAKTKPREEQQNSTYRVVSVLTVLHQDWLNGKEYKCKVSNKALKAPIEKTISKAKGQPREPQVYTLPPSRDELTKNQVSLTCLVKGFYPSDIAVEWESNGQPENNYKTTPPVLDSDGSFFLYSKLTVDKSRWQQGNVFSCSVMHEALHNHYTQKSLSLSPG
B3: VRT-55 (Fc fusion)
chain: B2 chain with F182L, E184N
B4: VRT-56 (Fc fusion)
chain: B2 chain with T13A, I16T, K17Q, K27V, G29N, F182L, E184N
B5: VRT-50 (Fc fusion)
chain: VTSVWTKGVTPPTDFIYGEDVLHAPYKAGQGWYDITKTFNGKDNLLCGAATAGNMLHWWFDQNKEQIENYLKKHPEKQKIIFNNQELFDLKAAIDTKDSQLDSKLFEYFKEKAFPYLSTKHLGVFPDHVIDMFINGYRLSLTNHGPTPVKRGSKDKRGGIFDAVFTRGVQSKLLTNRHDFKEKTLKEISDLIKQELTEGKALGISHTYANVRINHVINLWGADFDAEGNLEAIYVTDSDTNASIGMKKYFVGVNSNGKVAISAKEIEEDNIGAQVLGLFTLSTGQDIWNQTNDKTHTCPPCPAPEAAGAPSVFLFPPKPKDTLMISRTPEVTCVVVDVSHEDPEVKFNWYVDGVEVHNAKTKPREEQQNSTYRVVSVLTVLHQDWLNGKEYKCKVSNKALKAPIEKTISKAKGQPREPQVYTLPPSRDELTKNQVSLTCLVKGFYPSDIAVEWESNGQPENNYKTTPPVLDSDGSFFLYSKLTVDKSRWQQGNVFSCSVMHEALHNHYTQKSLSLSPG
B6: VRT-53 (Fc fusion)
chain: B5 chain with D14N, I16T, K27V, G29N, F180L, E182N
B7: VRT-52 (Fc fusion)
chain: B5 chain with T38A, N40D, K42G, L101T, D102N, K104E, E107N, F180L, E182N
B8: VRT-47 (Fc fusion)
chain: VTSVWTKGVTPPTDFIYGEDVLHAPYKAGQGWYDITKTFNGKDDLLCGAATAGNMLHWWFDQNKEQIENYLKKHPEKQKINFNGEQMFDVKEAIDTKDSQLDSKLFEYFKEKAFPYLSTKHLGVFPDHVIDMFINGYRLSLTNHGPTPVKRGSKDPRGGIFDAVFTRGDQSKLLTNRHDLKNKTLKEISDLIKQELTEGKALGISHTYANVRINHVINLWGADFDAEGNLEAIYVTDSDSNASIGMKKYFVGVNSNGKVAISAKEIEEDNIGAQVLGLFTLSTGQDIWNQTNDKTHTCPPCPAPEAAGAPSVFLFPPKPKDTLMISRTPEVTCVVVDVSHEDPEVKFNWYVDGVEVHNAKTKPREEQQNSTYRVVSVLTVLHQDWLNGKEYKCKVSNKALKAPIEKTISKAKGQPREPQVYTLPPSRDELTKNQVSLTCLVKGFYPSDIAVEWESNGQPENNYKTTPPVLDSDGSFFLYSKLTVDKSRWQQGNVFSCSVMHEALHNHYTQKSLSLSPG
B9: VRT-49 (Fc fusion)
chain: B8 chain with D14N, I16T, K27V, G29N

Molecular target: pooled human IgG (human)
Test: cell-based or functional assay

Row | Binder | Enzyme Activity Endpoint Assay, Fab′2 [ng/µL] | Enzyme Activity Endpoint Assay, Fc [ng/µL] | Enzyme Activity Endpoint Assay, IgG [ng/µL] | Enzyme Activity Endpoint Assay, scIgG [ng/µL]
1 | B1 | 9 | 222 | 134 | 258
2 | B2 | 0 | 129 | 672 | 150
3 | B3 | 0 | 120 | 734 | 109
4 | B4 | 0 | 200 | 742 | 240
5 | B5 | 8 | 226 | 295 | 360
6 | B6 | 0 | 209 | 326 | 339
7 | B7 | 6 | 213 | 238 | 311
8 | B8 | 168 | 317 | 253 | 156
9 | B9 | 135 | 291 | 157 | 131
